Laboratory results reported in publication PMC2362229.

Tested on: COc1cccc2c1C(=O)c1c(O)c3c(c(O)c1C2=O)C[C@@](O)(C(C)=O)C[C@@H]3O[C@H]1C[C@H](N)[C@H](O)[C@H](C)O1
Assay: cells, lysate or membranes named
Conditions: other: Lineweaver-Burk plots; rat canalicular vesicles; pH 7.4

Chain of Mdr1b P-gp (Rattus norvegicus) (chain, as listed by the source): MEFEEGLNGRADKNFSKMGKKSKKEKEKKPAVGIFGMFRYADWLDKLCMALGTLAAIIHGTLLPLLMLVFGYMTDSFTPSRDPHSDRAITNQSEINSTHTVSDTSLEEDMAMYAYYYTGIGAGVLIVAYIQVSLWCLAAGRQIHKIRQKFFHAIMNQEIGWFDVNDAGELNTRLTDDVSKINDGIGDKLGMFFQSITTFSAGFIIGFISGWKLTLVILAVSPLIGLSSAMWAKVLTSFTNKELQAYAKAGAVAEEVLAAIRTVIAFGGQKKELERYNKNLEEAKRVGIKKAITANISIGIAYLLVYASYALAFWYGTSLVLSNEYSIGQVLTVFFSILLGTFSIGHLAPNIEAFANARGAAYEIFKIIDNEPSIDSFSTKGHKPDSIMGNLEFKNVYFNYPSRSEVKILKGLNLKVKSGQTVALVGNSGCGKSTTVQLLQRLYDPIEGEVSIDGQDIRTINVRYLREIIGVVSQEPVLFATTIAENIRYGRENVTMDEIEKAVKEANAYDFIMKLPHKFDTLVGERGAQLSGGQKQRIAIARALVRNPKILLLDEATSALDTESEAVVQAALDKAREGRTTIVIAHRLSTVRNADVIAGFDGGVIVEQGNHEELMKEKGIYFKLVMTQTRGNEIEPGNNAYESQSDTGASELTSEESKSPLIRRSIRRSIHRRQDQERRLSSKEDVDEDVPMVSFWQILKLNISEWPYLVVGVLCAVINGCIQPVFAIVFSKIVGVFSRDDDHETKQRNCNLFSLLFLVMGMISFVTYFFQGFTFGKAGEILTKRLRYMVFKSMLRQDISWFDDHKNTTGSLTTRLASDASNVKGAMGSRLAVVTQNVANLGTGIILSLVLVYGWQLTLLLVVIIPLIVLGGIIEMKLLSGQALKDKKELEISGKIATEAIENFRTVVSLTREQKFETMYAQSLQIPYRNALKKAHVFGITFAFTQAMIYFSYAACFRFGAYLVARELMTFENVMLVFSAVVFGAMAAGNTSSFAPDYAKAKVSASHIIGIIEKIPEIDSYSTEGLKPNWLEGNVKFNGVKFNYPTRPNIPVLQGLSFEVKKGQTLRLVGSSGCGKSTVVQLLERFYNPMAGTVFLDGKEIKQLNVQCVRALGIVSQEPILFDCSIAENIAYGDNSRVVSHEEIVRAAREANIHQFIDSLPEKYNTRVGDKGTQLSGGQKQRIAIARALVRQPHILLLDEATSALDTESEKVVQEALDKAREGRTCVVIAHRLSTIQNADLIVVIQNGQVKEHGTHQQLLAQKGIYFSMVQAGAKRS

## Mdr1b P-gp (Rattus norvegicus)
  Km: 33 µM
